In ChEMBL document CHEMBL1629679, “Extended-spectrum cephalosporinases in Pseudomonas aeruginosa” (2009):
Residue numbers refer to the chain shown, from its start.

Legend:
[1] = substrate: C[C@@H](O)[C@H]1C(=O)N2C(C(=O)O)=C(SCCNC=N)C[C@H]12; assay: (§1) Activity at Pseudomonas aeruginosa PDC-5 by spectrophotometer
[2] = substrate: CCN1CCN(C(=O)N[C@@H](C(=O)N[C@@H]2C(=O)N3[C@@H]2SC(C)(C)[C@@H]3C(=O)O)c2ccccc2)C(=O)C1=O; assay: as §1
[3] = substrate: CC(C)(O/N=C(\C(=O)N[C@@H]1C(=O)N2C(C(=O)[O-])=C(C[n+]3ccccc3)CS[C@H]12)c1csc(N)n1)C(=O)O; assay: as §1
[4] = substrate: CO/N=C(\C(=O)N[C@@H]1C(=O)N2C(C(=O)[O-])=C(C[N+]3(C)CCCC3)CS[C@H]12)c1csc(N)n1; assay: as §1
[5] = substrate: CO/N=C(\C(=O)N[C@@H]1C(=O)N2C(C(=O)O)=C(COC(C)=O)CS[C@H]12)c1csc(N)n1; assay: as §1
[6] = substrate: CC1(C)S[C@@H]2[C@H](NC(=O)Cc3ccccc3)C(=O)N2[C@H]1C(=O)O; assay: as §1
[7] = substrate: C[C@@H](O)[C@H]1C(=O)N2C(C(=O)O)=C(SCCNC=N)C[C@H]12; assay: (§2) Ratio of Kcat to Km for Pseudomonas aeruginosa PDC-5 by spectrophotometer
[8] = substrate: CCN1CCN(C(=O)N[C@@H](C(=O)N[C@@H]2C(=O)N3[C@@H]2SC(C)(C)[C@@H]3C(=O)O)c2ccccc2)C(=O)C1=O; assay: as §2
[9] = substrate: CC(C)(O/N=C(\C(=O)N[C@@H]1C(=O)N2C(C(=O)[O-])=C(C[n+]3ccccc3)CS[C@H]12)c1csc(N)n1)C(=O)O; assay: as §2
[10] = substrate: CO/N=C(\C(=O)N[C@@H]1C(=O)N2C(C(=O)O)=C(COC(C)=O)CS[C@H]12)c1csc(N)n1; assay: as §2
[11] = substrate: CC1(C)S[C@@H]2[C@H](NC(=O)Cc3ccccc3)C(=O)N2[C@H]1C(=O)O; assay: as §2
[12] = substrate: C[C@@H](O)[C@H]1C(=O)N2C(C(=O)O)=C(SCCNC=N)C[C@H]12; assay: (§3) Activity at Pseudomonas aeruginosa PDC-1 by spectrophotometer
[13] = substrate: CCN1CCN(C(=O)N[C@@H](C(=O)N[C@@H]2C(=O)N3[C@@H]2SC(C)(C)[C@@H]3C(=O)O)c2ccccc2)C(=O)C1=O; assay: as §3
[14] = substrate: CC(C)(O/N=C(\C(=O)N[C@@H]1C(=O)N2C(C(=O)[O-])=C(C[n+]3ccccc3)CS[C@H]12)c1csc(N)n1)C(=O)O; assay: as §3
[15] = substrate: CO/N=C(\C(=O)N[C@@H]1C(=O)N2C(C(=O)[O-])=C(C[N+]3(C)CCCC3)CS[C@H]12)c1csc(N)n1; assay: as §3
[16] = substrate: CO/N=C(\C(=O)N[C@@H]1C(=O)N2C(C(=O)O)=C(COC(C)=O)CS[C@H]12)c1csc(N)n1; assay: as §3
[17] = substrate: CC1(C)S[C@@H]2[C@H](NC(=O)Cc3ccccc3)C(=O)N2[C@H]1C(=O)O; assay: as §3
[18] = substrate: C[C@@H](O)[C@H]1C(=O)N2C(C(=O)O)=C(SCCNC=N)C[C@H]12; assay: (§4) Ratio of Kcat to Km for Pseudomonas aeruginosa PDC-1 by spectrophotometer
[19] = substrate: CCN1CCN(C(=O)N[C@@H](C(=O)N[C@@H]2C(=O)N3[C@@H]2SC(C)(C)[C@@H]3C(=O)O)c2ccccc2)C(=O)C1=O; assay: as §4
[20] = substrate: CC(C)(O/N=C(\C(=O)N[C@@H]1C(=O)N2C(C(=O)[O-])=C(C[n+]3ccccc3)CS[C@H]12)c1csc(N)n1)C(=O)O; assay: as §4
[21] = substrate: CO/N=C(\C(=O)N[C@@H]1C(=O)N2C(C(=O)[O-])=C(C[N+]3(C)CCCC3)CS[C@H]12)c1csc(N)n1; assay: as §4
[22] = substrate: CO/N=C(\C(=O)N[C@@H]1C(=O)N2C(C(=O)O)=C(COC(C)=O)CS[C@H]12)c1csc(N)n1; assay: as §4
[23] = substrate: CC1(C)S[C@@H]2[C@H](NC(=O)Cc3ccccc3)C(=O)N2[C@H]1C(=O)O; assay: as §4

B1: Beta-lactamase (Pseudomonas aeruginosa), Q8RL90 (protein)
chain: MRDTRFPCLCGIAASTLLFATTPAIAGEAPADRLKALVDAAVQPVMKANDIPGLAVAISLKGEPHYFSYGLASKEDGRQVTPETLFEIGSVSKTFTATLAGYALAQDKMRLDDRASQHWPALQGSRFDGISLLDLATYTAGGLPLQFPDSVQKDQAQIRDYYRQWQPTYAPGSQRLYSNPSIGLFGYLAARSLGQPFERLMEQQVFPALGLEQTHLDVPEAALAQYAQGYGKDDRPLRVGPGPLDAEGYGVKTSAADLLRFVDANLHPERLDRPWAQALDATHRGYYKVGDMTQGLGWEAYDWPISLKRLQAGNSTPMALQPHRIARLPAPQALEGQRLLNKTGSTNGFGAYVAFVPGRDLGLVILANRNYPNAERVKIAYAILSGLEQQGKVPLKR
- Km [1]: 15 µM
- kcat [1]: 0.1 s⁻¹
- Km [2]: 40 µM
- kcat [2]: 5 s⁻¹
- Km [3]: 30 µM
- kcat [3]: 0.015 s⁻¹
- Km [4]: 1700 µM
- Km [5]: 5 µM
- kcat [5]: 0.1 s⁻¹
- Km [6]: 35 µM
- kcat [6]: 30 s⁻¹
- kcat/Km [7]: 6e+06 M⁻¹ s⁻¹
- kcat/Km [8]: 125000 M⁻¹ s⁻¹
- kcat/Km [9]: 500000 M⁻¹ s⁻¹
- kcat/Km [10]: 20000 M⁻¹ s⁻¹
- kcat/Km [11]: 860000 M⁻¹ s⁻¹

B2: Beta-lactamase (Pseudomonas aeruginosa (strain ATCC 15692 / PAO1 / 1C / PRS 101 / LMG12228)), P24735 (protein)
chain: B1 chain with Q79R, A105T
- Km [12]: 20 µM
- kcat [12]: 0.01 s⁻¹
- Km [13]: 100 µM
- kcat [13]: 2 s⁻¹
- kcat [14]: 0.004 s⁻¹
- Km [15]: 800 µM
- kcat [15]: 0.08 s⁻¹
- Km [16]: 6 µM
- kcat [16]: 0.02 s⁻¹
- Km [17]: 35 µM
- kcat/Km [18]: 500000 M⁻¹ s⁻¹
- kcat/Km [19]: 50000 M⁻¹ s⁻¹
- kcat/Km [20]: 200000 M⁻¹ s⁻¹
- kcat/Km [21]: 100000 M⁻¹ s⁻¹
- kcat/Km [22]: 3000 M⁻¹ s⁻¹
- kcat/Km [23]: 430000 M⁻¹ s⁻¹
